Results from patent US20080166798A1 (BARNES JEWISH HOSPITAL, published 2008).

B1: IIA NH2-propeptide synthesized without fusion to the neck/CRD domains of SP-D (other, human, UniProt P02458 26-203, looked up)
chain: QDVQEAGSCVQDGQRYNDKDVWKPEPCRICVCDTGTVLCDDIICEDVKDCLSPEIPFGECCPICPTDLATASGQPGPKGQKGEPGDIKDIVGPKGPPGPQGPAGEQGPRGDRGDKGEKGAPGPRGRDGEPGTPGNPGPPGPPGPPGPPGLGGNFAAQMAGGFDEKAGGAQLGVMQGPM
notes: domain: NH2-propeptide (exons 1-8); Transiently transfected CHO cells; secreted as monomers; also called control construct of full-length IIA NH2-propeptide only
B2: mIIA-203 (other, human, UniProt P02458 26-203, looked up)
chain: B1 chain
notes: domain: NH2-propeptide (exons 1-8); Truncation mutant of IIA/SP-D, control
B3: mIIA-211 (other, human;rat, UniProt P02458 26-203, looked up)
chain: QDVQEAGSCVQDGQRYNDKDVWKPEPCRICVCDTGTVLCDDIICEDVKDCLSPEIPFGECCPICPTDLATASGQPGPKGQKGEPGDIKDIVGPKGPPGPQGPAGEQGPRGDRGDKGEKGAPGPRGRDGEPGTPGNPGPPGPPGPPGPPGLGGNFAAQMAGGFDEKAGGAQLGVMQGPMDSAALRQQ
notes: domain: NH2-propeptide (exons 1-8);domain: first heptad repeat of the coiled-coil neck domain; Truncation mutant of IIA/SP-D; also called IIA NH2-propeptide fused to the first heptad repeat

Tests used:
[1] = molecular target: the molecule itself; assay: self-association; BS3 cross-linking, IIA Western blot
Excerpt: Chemical crosslinking was used to examine the state of oligomerization of the IIA collagen domain.

[2] = molecular target: the molecule itself; assay: self-association; BS3 cross-linking (0-2 mM), anti-IIA immunoblot
Experimental: J. 318:505-511 (1996)) (FIG. 8). Each mutant protein was covalently cross-linked and the presence of protein monomers, dimers or trimers was detected by immunoblotting using the anti-IIA antibody. […] The IIA NH₂-propeptide attached to the 35 amino acid stretch of the coiled-coil neck (mIIA-237) was also secreted as a non-covalent trimer. However, lower concentrations of cross-linker (0.1-0.2 mM) were sufficient for detection of mIIA-237 trimers compared to concentrations used to detect trimers of the other truncated mutant proteins (0.5-1 mM), and no dimeric intermediate was identified. Co-operativity exists between the IIA NH₂-propeptide collagen domain and the 14 amino acid sequence of the SP-D coiled-coil neck domain
To determine the minimum sequence that can function as a trimerizing unit, mutant constructs were designed containing termination codons at specific locations within the heptad repeats of the coiled-coil. Using IIA/SP-D cDNA in pGEM-3Z as a substrate, four mutant constructs were synthesized using the QuikChangem Site-Directed Mutagenesis Kit (Stratagene, La Jolla, Calif.). The sequence of the mutant was confirmed by DNA sequencing. […] Proteins were detected by SDS-PAGE and immunolocalization of Western blots using the anti-IIA polyclonal antibody.

Protein | binding result [1] | binding result [2]
B1 | no binding | 
B2 |  | no binding
B3 |  | no binding
